Experimental data taken from article PMC2174553.

B1: Bub3p fusion to the transcriptional activation domain (natural protein)
chain: MQIVQIEQAPKDYISDIKIIPSKSLLLITSWDGSLTVYKFDIQAKNVDLLQSLRYKHPLLCCNFIDNTDLQIYVGTVQGEILKVDLIGSPSFQALTNNEANLGICRICKYGDDKLIAASWDGLIEVIDPRNYGDGVIAVKNLNSNNTKVKNKIFTMDTNSSRLIVGMNNSQVQWFRLPLCEDDNGTIEESGLKYQIRDVALLPKEQEGYACSSIDGRVAVEFFDDQGDDYNSSKRFAFRCHRLNLKDTNLAYPVNSIEFSPRHKFLYTAGSDGIISCWNLQTRKKIKNFAKFNEDSVVKIACSDNILCLATSDDTFKTNAAIDQTIELNASSIYIIFDYEN
B2: Cdc20p fusion to the transcriptional activation domain (natural protein)
chain: MPESSRDKGNAAISGNRSVLSIASPTKLNILSSDWSRNQGKVSKNSLKRSSSLNIRNSKRPSLQASANSIYSRPKITIGAPPLIRRDSSFFKDEFDAKKDKATFSAYSSRSYPTIGSESVVSQTSLSQPTTSREVDEQFTVAADRYIPILQGASQNKVDPETLHEALPPPNASPISHLRAQTKIVFKQNVAEACGLDMNKRILQYMPEPPKCSSLRQKSYIMKKRTHYSYQQEQKIPDLIKLRKINTNPERILDAPGFQDDFYLNLLSWSKKNVLAIALDTALYLWNATTGDVSLLTDFENTTICSVTWSDDDCHISIGKEDGNTEIWDVETMSLIRTMRSGLGVRIGSLSWLDTLIATGSRSGEIQINDVRIKQHIVSTWAEHTGEVCGLSYKSDGLQLASGGNDNTVMIWDTRTSLPQFSKKTHTAAVKALSWCPYSPNILASGGGQTDKHIHFWNSITGARVGSINTGSQVSSLHWGQSHTSTNGGMMNKEIVATGGNPENAISVYNYETKFKVAEVVHAHEARICCSQLSPDGTTLATVGGDENLKFYKIFDPRCTGRSREDGLMDGMLGLIGKEGCRTNDKENRSKNSSEIHTRRPSSTSQYLIR

Molecular target: Bub1p fusion to the Gal4 DNA binding domain (budding yeast) (UniProt P41695)
UniProt P41695, sequence (P41695 whole entry, the tested form may be a part): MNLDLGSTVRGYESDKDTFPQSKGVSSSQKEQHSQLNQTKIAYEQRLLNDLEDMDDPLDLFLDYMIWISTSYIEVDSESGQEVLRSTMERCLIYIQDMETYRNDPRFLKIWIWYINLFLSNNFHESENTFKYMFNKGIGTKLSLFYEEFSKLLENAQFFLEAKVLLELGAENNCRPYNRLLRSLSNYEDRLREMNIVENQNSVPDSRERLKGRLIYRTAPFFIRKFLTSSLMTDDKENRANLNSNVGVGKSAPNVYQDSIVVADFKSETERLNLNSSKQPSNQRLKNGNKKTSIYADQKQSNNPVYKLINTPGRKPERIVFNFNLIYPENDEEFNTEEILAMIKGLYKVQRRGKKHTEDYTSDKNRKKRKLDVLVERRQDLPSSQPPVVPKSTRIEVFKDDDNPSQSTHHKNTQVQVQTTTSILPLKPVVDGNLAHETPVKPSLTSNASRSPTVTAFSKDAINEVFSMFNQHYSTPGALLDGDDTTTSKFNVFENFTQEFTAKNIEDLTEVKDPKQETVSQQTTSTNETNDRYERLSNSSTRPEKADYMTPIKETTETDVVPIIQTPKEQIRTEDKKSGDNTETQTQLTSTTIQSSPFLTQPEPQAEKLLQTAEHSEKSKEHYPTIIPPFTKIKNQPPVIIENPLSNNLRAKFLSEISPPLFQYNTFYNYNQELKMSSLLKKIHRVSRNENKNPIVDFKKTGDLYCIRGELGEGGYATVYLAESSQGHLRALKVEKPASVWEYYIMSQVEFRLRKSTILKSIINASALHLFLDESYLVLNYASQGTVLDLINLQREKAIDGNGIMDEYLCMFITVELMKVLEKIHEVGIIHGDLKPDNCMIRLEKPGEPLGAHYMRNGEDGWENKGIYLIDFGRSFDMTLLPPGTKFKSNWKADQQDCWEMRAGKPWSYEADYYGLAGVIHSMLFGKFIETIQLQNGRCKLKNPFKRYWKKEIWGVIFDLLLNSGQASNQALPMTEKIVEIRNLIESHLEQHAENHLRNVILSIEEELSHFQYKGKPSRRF
Test: two-hybrid

| Binder | β-galactosidase activity (two-hybrid) |
| --- | --- |
| B1 | 55 Miller units |
| B2 | 100 Miller units |
